Patent US20190374506A1 (BETH ISREAL DEACONESS MEDICAL CENTER, published 2019)

Assays:
[1] = target: T1, HA-PTEN (human, UniProt P60484 1-403); test: anti-PTEN immunoprecipitation from DU145 cells transfected with HA-PTEN, SDS-PAGE, mass-spectrometric peptide sequencing of the bands (association in the precipitate)
T1 construct: Expressed in DU145 cells and immunoprecipitated with anti-PTEN antibody for mass spectrometry; also called exogenous PTEN; pcDNA3-HA-PTEN; not shown: HA tag
Source text: FIG. 2A is a Western blot. Lysates from DU145 cells transfected with HA-PTEN were immunoprecipitated with an anti-PTEN antibody followed by mass-spectrometric peptide sequencing. WWP1 and NEDD4-1 were identified.
In order to identify the E3 ligases that induce PTEN atypical K27-linked poly-ubiquitination, exogenous PTEN was immunoprecipitated from DU145 cells, followed by identification of the proteins that interacted with PTEN by mass spectrometry (FIG. 2A; FIG. 18).

[2] = target: T2, Flag-WWP1 (Homo sapiens (Human), UniProt Q9H0M0 1-922); test: reciprocal co-immunoprecipitation from 293 cells: IP HA / WB Flag and IP Flag / WB HA
T2 construct: also called full-length Flag-WWP1; recombinant Flag-WWP1; not shown: Flag tag

[3] = target: the molecule itself; test: gel filtration of HEK293 lysate, fractions on SDS-PAGE, anti-Myc blot
Protocol: 293 cells were transfected with the indicated expression vectors. After 24 hours, cells were washed with PBS, lysed and filtered through a 0.45 μm syringe filter. 500 μl of lysate (4 mg/ml) was loaded into a Superdex200 10/300 GL column (GE Lifesciences Cat. No. 17-5175-01). Tandem columns gel filtrations were performed by further attaching a series Superdex 75 10/300 GL column (GE Lifesciences Cat. No. 17-5174-01). Samples were separated in a Superdex75 column first, followed by a Superdex 200 column. Chromatography was performed by using anAKTA FPLC (GE Lifesciences Cat. No. 18-1900-26), and protein complexes were resolved and eluted with lysis buffer at 0.5 ml/minute, 500 μl per fraction. 40 μl aliquots of each fraction were separated by SDS-PAGE and western blot analysis was performed with the indicated antibodies. Before sample separation, molecular-weight resolution of the columns was estimated by running the Gel Filtration Calibration Kit (GE Lifesciences, #28-4038-42) to determine retention times on Coomassie-stained SDS-PAGE protein gels.

Row | Binder | binding result [1] | further results
1 | Isoform 2 of Structural maintenance of chromosomes protein 2 (other) MHIKSIILEGFKSYAQRTEVNGFDPLFNAITGLNGSGKSNILDSICFLLGISNLSQVRASNLQDLVYKNGQAGITKASVSITFDNSDKKQSPLGFEVHDEITVTRQVVIGGRNKYLINGVNANNTRVQDLFCSVGLNVNNPHFLIMQGRITKVLNMKPPEILSMIEEAAGTRMYEYKKIAAQKTIEKKEAKLKEIKTILEEEITPTIQKLKEERSSYLEYQKVMREIEHLSRLYIAYQFLLAEDTKVRSAEELKEMQDKVIKLQEELSENDKKIKALNHEIEELEKRKDKETGGILRSLEDALAEAQRVNTKSQSAFDLKKKNLACEESKRKELEKNMVEDSKTLAAKEKEVKKITDGLHALQEASNKDAEALAAAQQHFNAVSAGLSSNEDGAEATLAGQMMACKNDISKAQTEAKQAQMKLKHAQQELKNKQAEVKKMDSGYRKDQEALEAVKRLKEKLEAEMKKLNYEENKEESLLEKRRQLSRDIGRLKETYEALLARFPNLRFAYKDPEKNWNRNCVKGLVASLISVKDTSATTALELVAGERLYNVVVDTEVTGKKLLERGELKRRYTIIPLNKISARCIAPETLRVAQNLVGPDNVHVALSLVEYKPELQKAMEFVFGTTFVCDNMDNAKKVAFDKRIMTRTVTLGGDVFDPHGTLSGGARSQAASILTKFQELKDVQDELRIKENELRALEEELAGLKNTAEKYRQLKQQWEMKTEEADLLQTKLQQSSYHKQQEELDALKKTIEESEETLKNTKEIQRKAEEKYEVLENKMKNAEAERERELKDAQKKLDCAKTKADASSKKMKEKQQEVEAITLELEELKREHTSYKQQLEAVNEAIKSYESQIEVMAAEVAKNKESVNKAQEEVTKQKEVITAQDTVIKAKYAEVAKHKEQNNDSQLKIKELDHNISKHKREAEDGAAKVSKMLKDYDWINAERHLFGQPNSAYDFKTNNPKEAGQRLQKLQEMKEKLGRNVNMRAMNVLTEAEERYNDLMKKKRIVENDKSKILTTIEDLDQKKNQALNIAWQKVNKDFGSIFSTLLPGANAMLAPPEGQTVLDGLEFKVALGNTWKENLTELSGGQRQKQQNHTTG | binds | –
2 | Monofunctional C1-tetrahydrofolate synthase (enzyme) SSGGGGGGGGGREGLLGQRRPQDGQARSSCSPGGRTPAARDSIVREVIQNSKEVLSLLQEKNPAFKPVLAIIQAGDDNLMQEINQNLAEEAGLNITHICLPPDSSEAEIIDEILKINEDTRVHGLALQISENLFSNKVLNALKPEKDVDGVTDINLGKLVRGDAHECFVSPVAKAVIELLEKSGVNLDGKKILVVGAHGSLEAALQCLFQRKGSMTMSIQWKTRQLQSKLHEADIVVLGSPKPEEIPLTWIQPGTTVLNCSHDFLSGKVGCGSPRIHFGGLIEEDDVILLAAALRIQNMVSSGRRWLREQQHRRWRLHCLKLQPLSPVPSDIEISRGQTPKAVDVLAKEIGLLADEIEIYGKSKAKVRLSVLERLKDQADGKYVLVAGITPTPLGEGKSTVTIGLVQALTAHLNVNSFACLRQPSQGPTFGVKGGAAGGGYAQVIPMEEFNLHLTGDIHAITAANNLLAAAIDTRILHENTQTDKALYNRLVPLVNGVREFSEIQLARLKKLGINKTDPSTLTEEEVSKFARLDIDPSTITWQRVLDTNDRFLRKITIGQGNTEKGHYRQAQFDIAVASEIMAVLALTDSLADMKARLGRMVVASDKSGQPVTADDLGVTGALTVLMKDAIKPNLMQTLEGTPVFVHAGPFANIAHGNSSVLADKIALKLVGEEGFVVTEAGFGADIGMEKFFNIKCRASGLVPNVVVLVATVRALKMHGGGPSVTAGVPLKKEYTEENIQLVADGCCNLQKQIQITQLFGVPVVVALNVFKTDTRAEIDLVCELAKRAGAFDAVPCYHWSVGGKGSVDLARAVREAASKRSRFQFLYDVQVPIVDKIRTIAQAVYGAKDIELSPEAQAKIDRYTQQGFGNLPICMAKTHLSLSHQPDKKGVPRDFILPISDVRASIGAGFIYPLVGTMSTMPGLPTRPCFYDIDLDTETEQVKGLF | binds | –
3 | N-terminal PTEN (1-187) (enzyme, not shown: small tags and cut ends) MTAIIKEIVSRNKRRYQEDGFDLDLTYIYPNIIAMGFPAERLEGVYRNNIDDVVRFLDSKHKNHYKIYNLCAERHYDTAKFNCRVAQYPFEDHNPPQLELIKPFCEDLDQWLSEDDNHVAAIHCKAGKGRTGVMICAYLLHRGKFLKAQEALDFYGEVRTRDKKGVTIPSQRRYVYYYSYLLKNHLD | – | binding result [2]: no binding
4 | PTEN K342/K344R mutant (enzyme, not shown: small tags and cut ends, also called Myc-PTEN K342/K344R mutant; PTEN K342/K344R ubiquitination defective mutant) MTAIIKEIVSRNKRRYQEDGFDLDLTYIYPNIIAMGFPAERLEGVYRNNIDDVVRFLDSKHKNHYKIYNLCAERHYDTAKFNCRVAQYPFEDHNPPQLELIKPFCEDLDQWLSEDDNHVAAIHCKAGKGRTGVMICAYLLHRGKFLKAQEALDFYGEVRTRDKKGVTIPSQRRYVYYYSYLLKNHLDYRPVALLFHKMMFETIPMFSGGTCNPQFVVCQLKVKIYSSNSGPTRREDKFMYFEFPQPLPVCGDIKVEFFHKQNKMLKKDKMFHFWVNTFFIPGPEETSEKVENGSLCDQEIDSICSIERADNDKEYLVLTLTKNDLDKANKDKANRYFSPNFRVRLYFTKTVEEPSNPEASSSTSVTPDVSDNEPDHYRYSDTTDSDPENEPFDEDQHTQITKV | – | binding result [3]: binds

Further lines, with some results ahead:

Row | binding result [1] | Binder | further results
5 | binds | Isoform 2 of Putative RNA-binding protein 15 (other) MRTAGRDPVPRRSPRWRRAVPLCETSAGRRVTQLRGDDLRRPATMKGKERSPVKAKRSRGGEDSTSRGERSKKLGGSGGSNGSSSGKTDSGGGSRRSLHLDKSSSRGGSREYDTGGGSSSSRLHSYSSPSTKNSSGGGESRSSSRGGGGESRSSGAASSAPGGGDGAEYKTLKISELGSQLSDEAVEDGLFHEFKRFGDVSVKISHLSGSGSGDERVAFVNFRRPEDARAAKHARGRLVLYDRPLKIEAVYVSRRRSRSPLDKDTYPPSASVVGASVGGHRHPPGGGGGQRSLSPGGAALGYRDYRLQQLALGRLPPPPPPPLPRDLERERDYPFYERVRPAYSLEPRVGAGAGAAPFREVDEISPEDDQRANRTLFLGNLDITVTESDLRRAFDRFGVITEVDIKRPSRGQTSTYGFLKFENLDMSHRAKLAMSGKIIIRNPIKIGYGKATPTTRLWVGGLGPWVPLAALAREFDRFGTIRTIDYRKGDSWAYIQYESLDAAHAAWTHMRGFPLGGPDRRLRVDFADTEHRYQQQYLQPLPLTHYELVTDAFGHRAPDPLRGARDRTPPLLYRDRDRDLYPDSDWVPPPPPVRERSTRTAATSVPAYEPLDSLDRRRDGWSLDRDRGDRDLPSSRDQPRKRRLPEESGGRHLDRSPESDRPRKRHCAPSPDRSPELSSSRDRYNSDNDRSSRLLLERPSPIRDRRGSLEKSQGDKRDRKNSASAERDRKHRTTAPTEGKSPLKKEDRSDGSAPSTSTASSKLKSPSQKQDGGTAPVASASPKLCLAWQGMLLLKNSNFPSNMHLLQGDLQVASSLLVEGSTGGKVAQLKITQRLRLDQPKLDEVTRRIKVAGPNGYAILLAVPGSSDSRSSSSSAASDTATSTQRPLRNLVSYLKQKQAAGVISLPVGGNKDKENTGVLHAFPPCEFSQQFLDSPAKALAKSEEDYLVMIIVRGAS | –
6 | binds | Cytoskeleton-associated protein 4 (other) MPSAKQRGSKGGHGAASPSEKGAHPSGGADDVAKKPPPAPQQPPPPPAPHPQQHPQQHPQNQAHGKGGHRGGGGGGGKSSSSSSASAAAAAAAASSSASCSRRLGRALNFLFYLALVAAAAFSGWCVHHVLEEVQQVRRSHQDFSRQREELGQGLQGVEQKVQSLQATFGTFESILRSSQHKQDLTEKAVKQGESEVSRISEVLQKLQNEILKDLSDGIHVVKDARERDFTSLENTVEERLTELTKSINDNIAIFTEVQKRSQKEINDMKAKVASLEESEGNKQDLKALKEAVKEIQTSAKSREWDMEALRSTLQTMESDIYTEVRELVSLKQEQQAFKEAADTERLALQALTEKLLRSEESVSRLPEEIRRLEEELRQLKSDSHGPKEDGGFRHSEAFEALQQKSQGLDSRLQHVEDGVLSMQVASARQTESLESLLSKSQEHEQRLAALQGRLEGLGSSEADQDGLASTVRSLGETQLVLYGDVEELKRSVGELPSTVESLQKVQEQVHTLLSQDQAQAARLPPQDFLDRLSSLDNLKASVSQVEADLKMLRTAVDSLVAYSVKIETNENNLESAKGLLDDLRNDLDRLFVKVEKIHEKV | –
